Experimental data from publication PMC6351565.
Where a chain is given by its changes, count along the chain named. In names and notes the source's numbering stands.

T1: endogenous 14-3-3 (all isoforms included), P27348
T1 chain: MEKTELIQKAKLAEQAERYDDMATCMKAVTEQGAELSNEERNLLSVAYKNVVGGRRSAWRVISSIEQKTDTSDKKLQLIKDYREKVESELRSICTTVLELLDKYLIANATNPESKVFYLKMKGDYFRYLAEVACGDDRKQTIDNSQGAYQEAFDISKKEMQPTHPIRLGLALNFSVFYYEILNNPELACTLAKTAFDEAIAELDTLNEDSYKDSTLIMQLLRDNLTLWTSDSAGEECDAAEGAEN

B1: IRSp53-FLAG (wild type), natively phosphorylated, Q9UQB8-4 S452A; S453A; S454A; T455A (protein)
chain: MSLSRSEEMHRLTENVYKTIMEQFNPSLRNFIAMGKNYEKALAGVTYAAKGYFDALVKMGELASESQGSKELGDVLFQMAEVHRQIQNQLEEMLKSFHNELLTQLEQKVELDSRYLSAALKKYQTEQRSKGDALDKCQAELKKLRKKSQGSKNPQKYSDKELQYIDAISNKQGELENYVSDGYKTALTEERRRFCFLVEKQCAVAKNSAAYHSKGKELLAQKLPLWQQACADPSKIPERAVQLMQQVASNGATLPSALSASKSNLVISDPIPGAKPLPVPPELAPFVGRMSAQESTPIMNGVTGPDGEDYSPWADRKAAQPKSLSPPQSQSKLSDSYSNTLPVRKSVTPKNSYATTENKTLPRSSSMAAGLERNGRMRVKAIFSHAAGDNSTLLSFKEGDLITLLVPEARDGWHYGESEKTKMRGWFPFSYTRVLDSDGSDRLHMSLQQGKAAAAGNLLDKDDLAIPPPDYGAASRAFPAQTASGFKQRPYSVAVPAFSQGLDDYGARSMSSGSGTLVSTV
B2: IRSp53-FLAG (wild type), natively phosphorylated, Q9UQB8-4 T340A (protein)
chain: B1 chain with T340A, A452S, A453S, A454S, A455T
B3: IRSp53-FLAG (wild type), natively phosphorylated, Q9UQB8-4 T360A (protein)
chain: B1 chain with T360A, A452S, A453S, A454S, A455T
B4: IRSp53-FLAG (wild type), natively phosphorylated, Q9UQB8-4 S366A (protein)
chain: B1 chain with S366A, A452S, A453S, A454S, A455T
B5: IRSp53-FLAG (wild type), natively phosphorylated, Q9UQB8-4 T340A; T360A (protein)
chain: MSLSRSEEMHRLTENVYKTIMEQFNPSLRNFIAMGKNYEKALAGVTYAAKGYFDALVKMGELASESQGSKELGDVLFQMAEVHRQIQNQLEEMLKSFHNELLTQLEQKVELDSRYLSAALKKYQTEQRSKGDALDKCQAELKKLRKKSQGSKNPQKYSDKELQYIDAISNKQGELENYVSDGYKTALTEERRRFCFLVEKQCAVAKNSAAYHSKGKELLAQKLPLWQQACADPSKIPERAVQLMQQVASNGATLPSALSASKSNLVISDPIPGAKPLPVPPELAPFVGRMSAQESTPIMNGVTGPDGEDYSPWADRKAAQPKSLSPPQSQSKLSDSYSNALPVRKSVTPKNSYATTENKALPRSSSMAAGLERNGRMRVKAIFSHAAGDNSTLLSFKEGDLITLLVPEARDGWHYGESEKTKMRGWFPFSYTRVLDSDGSDRLHMSLQQGKSSSTGNLLDKDDLAIPPPDYGAASRAFPAQTASGFKQRPYSVAVPAFSQGLDDYGARSMSRNPFAHVQLKPTVTNDRCDLSAQGPEGREHGDGSARTLAGR

Biological target: T1, endogenous 14-3-3 (all isoforms …)
Experiment: coimmunoprecipitation (quantified western blot)
Conditions: chain shown with the change; serum-starved cells; parent: est. 1.0; read off a plot

ratio to parent | Binder
0.98 | B1
0.1 | B2
0.12 | B3
0.62 | B4
0.05 | B5
